According to patent US20190359711A1:

Target: CD3 on human pan T cells (human) (UniProt P07766)
Assay: flow cytometry, saturation binding on human pan T cells (KdT)

Chain of CD3 on human pan T cells (human) (P07766 23-207 limits assumed): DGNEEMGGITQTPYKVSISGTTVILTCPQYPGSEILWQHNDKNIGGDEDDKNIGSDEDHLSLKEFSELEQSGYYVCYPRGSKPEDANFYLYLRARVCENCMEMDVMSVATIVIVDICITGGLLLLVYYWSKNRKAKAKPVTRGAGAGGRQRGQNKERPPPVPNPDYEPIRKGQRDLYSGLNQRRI

Q: Which Kd does the source give for “AlexaFluor488 SP34-2 anti-CD3 (antibody)” here?
A: The Kd was 5.6 nM.
